Experimental findings from publication PMC10322944, “Cryo-EM and femtosecond spectroscopic studies provide mechanistic insight into the energy transfer in CpcL-phycobilisomes” (Nature Communications, 2023) are described below.

B1: CpcC1 (rod linker protein) (natural protein)
chain: not shown
notes: phycocyanin-associated rod linker CpcC1 of Synechocystis sp; PCC 6803; Pfam00427 domain at the N-terminus, Pfam01383 domain at the C-terminus; native protein in the isolated CpcL-PBS; model started from the AlphaFold database entry; source: endogenous, Synechocystis 6803 ΔapcAB mutant strain; purified as part of CpcL-PBS (sucrose gradient)
B2: phycocyanin (PC) αβ monomer (CpcA-CpcB heterodimer) (complex)
chain 1: not shown
chain 2: MFDVFTRVVSQADARGEYLSGSQLDALSATVAEGNKRIDSVNRITGNASAIVSNAARALFAEQPQLIQPGGNAYTSRRMAACLRDMEIILRYVTYATFTGDASVLEDRCLNGLRETYVALGVPGASVAAGVQKMKEAALDIVNDPNGITRGDCSAIVAEIAGYFDRAAAAVA
modifications: phycocyanobilin (PCB) covalently attached (bilin α84) | phycocyanobilin (PCB) covalently attached (bilins β82 and β152; printed β155 in p-0013)
notes: C-phycocyanin alpha subunit CpcA of Synechocystis sp; PCC 6803; as m1; C-phycocyanin beta subunit CpcB of Synechocystis sp; as m2; made for the self-association of the αβ monomer into trimers and hexamers; 18 αβ monomers stand in the three-layered CpcL-PBS; source: endogenous, Synechocystis 6803 ΔapcAB mutant strain; purified as part of CpcL-PBS (sucrose gradient)
B3: CpcB (phycocyanin β subunit) (natural protein, UniProt Q54714 1-172, looked up)
chain: B2 chain 2
modifications: phycocyanobilin (PCB) covalently attached (bilins β82 and β152; printed β155 in p-0013)
notes: C-phycocyanin beta subunit CpcB of Synechocystis sp; PCC 6803; native protein in the isolated CpcL-PBS; 18 copies in the three-layered CpcL-PBS; also called β-PC; PC β subunit; source: endogenous, Synechocystis 6803 ΔapcAB mutant strain; purified as part of CpcL-PBS (sucrose gradient)
B4: CpcC2 (rod linker protein) (natural protein)
chain: not shown
notes: phycocyanin-associated rod linker CpcC2 of Synechocystis sp; PCC 6803; Pfam00427 domain at the N-terminus, Pfam01383 domain at the C-terminus; native protein in the isolated CpcL-PBS; model started from the AlphaFold database entry; source: endogenous, Synechocystis 6803 ΔapcAB mutant strain; purified as part of CpcL-PBS (sucrose gradient)
B5: CpcL (linker protein of CpcL-PBS) (natural protein, UniProt P74625 1-249, looked up)
chain: MTLPLIAYAPVSQNQRVTNYEVSGDEHARIFTTEGTLSPSAMDNLIAAAYRQVFNEQQMIQSNRQIALESQFKNQQITVRDFIRGLALSDSFRRRNFEVNNNYRFVQMCIQRLLGRDVYSEEEKIAWSIVIATKGLPGFINELLNSQEYLENFGYDTVPYQRRRILPQRISGELPFARMPRYGADHREKLEAIGYFRNQAPLTYRWEWQKQPYPAGVYLAGKVVLYVGGALVSLGIIAVALSAWGIIGL
notes: linker protein CpcL (also called CpcG2) of Synechocystis sp; PCC 6803; Pfam00427 domain resolved, transmembrane region not resolved in the map; native protein in the isolated CpcL-PBS; model started from the AlphaFold database entry; also called CpcG2; source: endogenous, Synechocystis 6803 ΔapcAB mutant strain; purified as part of CpcL-PBS (sucrose gradient)

What all share (assay): cryo-EM structure; CpcL-PBS isolated from the ΔapcAB strain on a sucrose gradient (0.75 M K/Na-PO4 pH 7.0, 0.0125% glutaraldehyde, 0.03% β-DDM, 22 °C); phosphate diluted on the grid with 50 mM Tris pH 7.0, 0.01% β-DDM; map at 2.64 Å
The target in data set [1] is B5. The following applies: both partners purified.
Data set [2] deals with the molecule itself.
Data set [3] deals with T1, three-domain ferredoxin-NADP+ oxidoreductase (FNR3D) (Synechocystis sp. PCC 6803 (endogenous …, UniProt Q55318 1-413)).
T1 construct: ferredoxin-NADP+ oxidoreductase (PetH) of Synechocystis sp; only the CpcD (Pfam01383) domain is resolved in the map; model started from the AlphaFold database entry of PetH; also called PetH; source: endogenous, Synechocystis 6803 ΔapcAB mutant strain; purified as part of CpcL-PBS (sucrose gradient)
T1 sequence (Q55318 whole entry): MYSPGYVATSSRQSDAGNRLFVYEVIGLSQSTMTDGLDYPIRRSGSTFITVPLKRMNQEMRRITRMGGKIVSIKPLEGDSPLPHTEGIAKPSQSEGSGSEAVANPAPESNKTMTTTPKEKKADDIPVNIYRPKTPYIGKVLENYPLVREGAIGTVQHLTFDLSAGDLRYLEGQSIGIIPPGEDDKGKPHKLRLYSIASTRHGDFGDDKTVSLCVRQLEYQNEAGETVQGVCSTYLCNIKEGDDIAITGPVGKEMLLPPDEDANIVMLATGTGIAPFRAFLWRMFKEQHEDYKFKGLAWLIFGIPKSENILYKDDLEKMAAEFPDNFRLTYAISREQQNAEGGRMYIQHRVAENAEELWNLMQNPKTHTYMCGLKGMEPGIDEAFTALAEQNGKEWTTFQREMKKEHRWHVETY
The following applies: both partners purified.

The target of data set [4] is B1. The following applies: both partners purified.

As to B1, the “stoichiometry N” value in data set [1] turned out to be 1.

For the molecule B2, in data set [2], the “stoichiometry N” value was determined as 6. For B3, the binding result in data set [1] was “binds”. For the molecule B4, the binding result in data set [3] is listed as “binds”.

In the case of B5, the binding result in data set [4] was “binds”.
